Results published in PMC8017934.
Several values for one entry are separate records, joined by “and”; a condition that tells them apart may be missing. Equal values may be shown once. Read-outs that look alike come from different tables or passages of the source.

Assays:
[1] = biological target: human 40S ribosomal subunit with the ybbR tag on RACK1, biotinylated or Cy5-labelled (human) (UniProt P63244)
[2] = biological target: human 80S ribosome assembled on the CrPV IRES from 40S-ybbR-Cy3 and 60S-ybbR-Cy5 subunits (human (endogenous in HEK293T)) (UniProt P62841)
[3] = biological target: human 40S ribosomal subunit with the ybbR tag on uS19, Cy3-labelled (human (endogenous in HEK293T)) (UniProt P62841)
[4] = biological target: human 40S ribosomal subunit with the ybbR tag on RACK1, biotinylated or Cy5-labelled (human) (UniProt P63244); remark: listed apart in the source
[5] = biological target: human 40S ribosomal subunit with the ybbR tag on RACK1, biotinylated or Cy5-labelled (human) (UniProt P63244); remark: listed apart in the source
[6] = biological target: human 40S ribosomal subunit with the ybbR tag on RACK1, biotinylated or Cy5-labelled (human) (UniProt P63244); remark: listed apart in the source
[7] = biological target: eIF1–40S(biotin) subunit complex (human) (UniProt P41567)
[8] = biological target: human 40S ribosomal subunit with the ybbR tag on RACK1, biotinylated or Cy5-labelled (human) (UniProt P63244); remark: listed apart in the source
[9] = biological target: SARS-CoV-2 NSP1 (ybbR-NSP1) WT;human 40S ribosomal subunit (SARS-CoV-2;Homo sapiens) (UniProt P0DTD1); assay: single-molecule fluorescence (ZMW)
[10] = biological target: SARS-CoV NSP1;human 40S ribosomal subunit (SARS-CoV;Homo sapiens) (UniProt P0C6X7); assay: single-molecule fluorescence (ZMW)
[11] = biological target: MERS-CoV NSP1;human 40S ribosomal subunit (MERS-CoV;Homo sapiens) (UniProt K9N7C7); assay: single-molecule fluorescence (ZMW)
[12] = system: Bat-Hp-CoV NSP1;human 40S ribosomal subunit (Bat-Hp-CoV;Homo sapiens); assay: single-molecule fluorescence (ZMW)
[13] = biological target: SARS-CoV-2 NSP1 (ybbR-NSP1) WT;human 40S ribosomal subunit;eIF1, eIF1A, eIF5, eIF3 lacking 3j, TC-GMPPNP (eIF2, Met-tRNAi) (SARS-CoV-2;Homo sapiens;Homo sapiens) (UniProt P0DTD1); assay: single-molecule fluorescence (ZMW)
[14] = system: human 40S ribosomal subunit;eIF1, eIF1A, eIF5, TC-GMPPNP (eIF2, Met-tRNAi) (Homo sapiens;Homo sapiens); assay: single-molecule fluorescence (ZMW)
[15] = biological target: SARS-CoV-2 NSP1 (ybbR-NSP1) WT;human 40S ribosomal subunit;eIF1, eIF1A, eIF5, TC-GMPPNP (eIF2, Met-tRNAi) (SARS-CoV-2;Homo sapiens;Homo sapiens) (UniProt P0DTD1); assay: single-molecule fluorescence (ZMW)

Sequence of UniProt P41567 (P41567 whole entry, looked up, tested part not stated, one chain of several): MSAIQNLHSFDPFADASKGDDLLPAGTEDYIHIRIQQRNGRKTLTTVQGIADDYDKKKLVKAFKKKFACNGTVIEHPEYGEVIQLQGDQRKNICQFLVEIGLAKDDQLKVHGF

**Q.** What does the source list for “SARS-CoV NSP1 with an N-terminal ybbR tag, Cy3-labelled (from UniProt P0C6X7 1-180) (natural protein)”?
**A.** Kd [1]: < 2 nM; fraction of IRES–40S complexes bound at least once by NSP1 (≥∼5 s) [1]: 62%; koff [1]: < 0.006 s⁻¹

**Q.** Which fraction of traces with an NSP1 binding event [2] does the source give for “SARS-CoV-2 NSP1 with an N-terminal ybbR tag, fluorescently labelled (from UniProt P0DTD1 1-180) (natural protein)” here?
**A.** 30%

**Q.** And the time NSP1 remained bound after association [3]?
**A.** 120 s

**Q.** And the Kd [4]?
**A.** < 1 nM

**Q.** And the fraction of IRES–40S complexes bound at least once by NSP1 (≥∼5 s) [4]?
**A.** 77% and 60%

**Q.** And the koff [4]?
**A.** < 0.0043 s⁻¹

**Q.** And the fraction of mRNA–40S complexes bound at least once by NSP1 (≥∼5 s) [5]?
**A.** 16%

**Q.** And the kobs (apparent association rate) [5]?
**A.** < 0.002 s⁻¹

**Q.** What about the Kd [6] of the same substance?
**A.** > 3000 nM

**Q.** And the koff [6]?
**A.** 0.25 s⁻¹

**Q.** And the Kd [7]?
**A.** < 10 nM

**Q.** What about the koff [7] of the same substance?
**A.** 0.0042 s⁻¹

**Q.** And the kon [7]?
**A.** 300000 M⁻¹ s⁻¹

**Q.** And the kon [8]?
**A.** 3e+06 to 4e+06 M⁻¹ s⁻¹

**Q.** Which results are given for “GGCCAGCCCCCUGAUGGGGGCGACACUCCACCAUGAAUCACUCCCCUGUGAGGAACUACUGUCUUCACGCAGAAAGCGUCUAGCCAUGGCGUUAGUAUGAGUGUCGUGCAGCCUCCAGGACCCCCCCUCCCGGGAGAGCCAUAGUGGUCUGCGGAACCGGUGAGUACACCGGAAUUGCCAGGACGACCGGGUCCUUUCUUGGAUAAACCCGCUCAAUGCCUGGAGAUUUGGGCGUGCCCCCGCAAGACUGCUAGCCGAGUAGUGUUGGGUCGCGAAAGGCCUUGUGGUACUGCCUGAUAGGGUGCUUGCGAGUGCCCCGGGAGGUCUCGUAGACCGUGCACCAUGAGCACGAAUCCUAAACCUCAAAGAAAAACCGCCAGAACCAUGGAAGAC [HCV+48]”?
**A.** Kd [9]: > 2000 nM; binding signal (% 40S events with NSP1) [9]: 60

**Q.** Which results are given for “GGCCAGCCCCCUGAUGGGGGCGACACUCCACCAUGAAUCACUCCCCUGUGAGGAACUACUGUCUUCACGCAGAAAGCGUCUAGCCAUGGCGUUAGUAUGAGUGUCGUGCAGCCUCCAGGACCCCCCCUCCCGGGAGAGCCAUAGUGGUCUGCGGAACCGGUGAGUACACCGGAAUUGCCAGGACGACCGGGUCCUUUCUUGGAUAAACCCGCUCAAUGCCUGGAGAUUUGGGCGUGCCCCCGCAAGACUGCUAGCCGAGUAGUGUUGGGUCGCGAAAGGCCUUGUGGUACUGCCUGAUAGGGUGCUUGCGAGUGCCCCGGGAGGUCUCGUAGACCGUGCACCAUG [HCV+0]”?
**A.** Kd [10]: < 2 nM; binding signal (% complexes bound) [11]: 11; Kd [12]: < 1 nM; Kd [9]: < 1 nM; binding signal (% 40S events with NSP1) [9]: 57

**Q.** “GGCCAGCCCCCUGAUGGGGGCGACACUCCACCAUGAAUCACUCCCCUGUGAGGAACUACUGUCUUCACGCAGAAAGCGUCUAGCCAUGGCGUUAGUAUGAGUGUCGUGCAGCCUCCAGGACCCCCCCUCCCGGGAGAGCCAUAGUGGUCUGCGGAACCGGUGAGUACACCGGAAUUGCCAGGACGACCGGGUCCUUUCUUGGAUAAACCCGCUCAAUGCCUGGAGAUUUGGGCGUGCCCCCGCAAGACUGCUAGCCGAGUAGUGUUGGGUCGCGAAAGGCCUUGUGGUACUGCCUGAUAGGGUGCUUGCGAGUGCCCCGGGAGGUCUCGUAGACCGUGCACCAUGAGCACGAAUCCU [HCV+12]” was tested. Which binding signal [9] did it give?
**A.** 0.044 s-1 (kobs)

**Q.** What about the binding signal [13] of the same substance?
**A.** 0.013 s-1 (kobs)

**Q.** “GGCCAGCCCCCUGAUGGGGGCGACACUCCACCAUGAAUCACUCCCCUGUGAGGAACUACUGUCUUCACGCAGAAAGCGUCUAGCCAUGGCGUUAGUAUGAGUGUCGUGCAGCCUCCAGGACCCCCCCUCCCGGGAGAGCCAUAGUGGUCUGCGGAACCGGUGAGUACACCGGAAUUGCCAGGACGACCGGGUCCUUUCUUGGAUAAACCCGCUCAAUGCCUGGAGAUUUGGGCGUGCCCCCGCAAGACUGCUAGCCGAGUAGUGUUGGGUCGCGAAAGGCCUUGUGGUACUGCCUGAUAGGGUGCUUGCGAGUGCCCCGGGAGGUCUCGUAGACCGUGCACCAUGAGCACG [HCV+6]” was tested. Which binding signal (% complexes bound) [9] did it give?
**A.** 81

**Q.** Which binding signal [14] does the source give for “GGUCUCUCUCUCUCUCUCUAUGUUCAAAUAAUCUCUCUCUCUCUCUCUCUCUCUCUCUCUCUC [M+41]” here?
**A.** 0.0038 s-1 (koff)

**Q.** And the binding signal [15]?
**A.** 4 s-1 (koff)

**Q.** What about the binding signal (% complexes bound) [9] of the same substance?
**A.** 16
